Results from publication PMC4163509 (Molecular and cellular endocrinology, 2014).

Experiments:
[1] = target: T1, Methoprene-tolerant (Met) protein, AaMet (Aedes aegypti, UniProt Q58FS0); assay: [3H]-JH-III dextran-coated charcoal radioligand binding, Scatchard
T1 sequence (Q58FS0 1-597): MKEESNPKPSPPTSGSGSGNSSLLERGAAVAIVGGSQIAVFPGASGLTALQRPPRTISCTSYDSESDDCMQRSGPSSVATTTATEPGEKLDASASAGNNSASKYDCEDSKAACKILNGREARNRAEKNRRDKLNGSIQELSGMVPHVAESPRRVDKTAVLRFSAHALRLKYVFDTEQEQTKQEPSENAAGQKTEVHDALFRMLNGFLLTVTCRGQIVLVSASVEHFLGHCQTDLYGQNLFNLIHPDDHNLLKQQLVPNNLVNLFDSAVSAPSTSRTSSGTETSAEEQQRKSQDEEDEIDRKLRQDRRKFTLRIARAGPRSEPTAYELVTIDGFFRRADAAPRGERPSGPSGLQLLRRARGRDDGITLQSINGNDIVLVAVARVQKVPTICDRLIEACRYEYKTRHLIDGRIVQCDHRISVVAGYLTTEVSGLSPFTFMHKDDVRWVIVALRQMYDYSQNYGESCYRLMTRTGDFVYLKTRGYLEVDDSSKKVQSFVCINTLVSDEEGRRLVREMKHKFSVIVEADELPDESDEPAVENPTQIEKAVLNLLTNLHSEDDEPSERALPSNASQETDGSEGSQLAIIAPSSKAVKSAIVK

[2] = target: bHLH-PAS domain of AaMet fused to the GAL4 DNA-binding domain (Aedes aegypti) (UniProt Q58FS0); assay: two-hybrid
GST-AaMet (bHLH-PAS) = target: T2, GST-AaMet (bHLH-PAS) (Aedes aegypti, UniProt Q58FS0 1-597); assay: EMSA
T2 sequence: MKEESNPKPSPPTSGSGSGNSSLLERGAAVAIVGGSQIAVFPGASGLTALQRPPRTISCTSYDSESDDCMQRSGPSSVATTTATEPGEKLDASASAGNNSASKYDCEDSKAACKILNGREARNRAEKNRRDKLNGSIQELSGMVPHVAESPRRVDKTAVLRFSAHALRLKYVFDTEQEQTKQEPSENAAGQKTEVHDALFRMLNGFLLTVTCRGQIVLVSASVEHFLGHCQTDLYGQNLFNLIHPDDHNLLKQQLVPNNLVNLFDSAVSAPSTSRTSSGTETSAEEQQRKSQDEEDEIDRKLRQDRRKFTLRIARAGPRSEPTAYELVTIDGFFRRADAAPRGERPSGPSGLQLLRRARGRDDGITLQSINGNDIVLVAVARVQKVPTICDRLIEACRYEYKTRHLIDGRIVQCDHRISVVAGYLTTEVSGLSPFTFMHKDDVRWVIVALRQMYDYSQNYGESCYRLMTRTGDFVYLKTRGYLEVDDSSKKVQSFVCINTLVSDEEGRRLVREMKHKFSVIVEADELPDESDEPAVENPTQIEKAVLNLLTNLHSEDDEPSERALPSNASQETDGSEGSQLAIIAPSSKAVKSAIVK

For `COC(=O)/C=C(\C)CC/C=C(\C)CC[C@H]1OC1(C)C` [JH-III], the Kd [1] was 4.4 ± 1.9 nM.

In the case of “bHLH-PAS domain of AaFISC fused to the activation domain of GAL4 (domain or fragment)”, the fold enhancement of two-hybrid reporter activation with JH-III [2] is reported as over 20 fold.

B1: AaET_JHRE1 (dsDNA)
DNA 1: CCATCCCACACGCGAAGACGATAAAACCA
DNA 2: TGGTTTTATCGTCTTCGCGTGTGGGATGG
B1: no binding (GST-AaMet (bHLH-PAS)).
